Test results: PMC7983947, “ADP-Ribosylation Regulates the Signaling Function of IFN-γ” (Frontiers in Immunology, 2021)
Each block holds one binder with its values, some of them ahead of it.

What was measured:
[1] = target: T1, recombinant IFNR1-Fc (extracellular domain of interferon receptor 1) (UniProt P15261)
T1 sequence: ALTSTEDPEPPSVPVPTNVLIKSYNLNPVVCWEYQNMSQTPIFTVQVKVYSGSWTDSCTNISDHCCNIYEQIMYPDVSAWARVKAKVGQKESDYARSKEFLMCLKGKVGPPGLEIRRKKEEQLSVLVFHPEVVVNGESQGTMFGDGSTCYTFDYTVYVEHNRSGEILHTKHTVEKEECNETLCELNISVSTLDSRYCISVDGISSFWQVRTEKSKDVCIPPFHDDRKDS

[2] = target: the molecule itself; test: non-reducing SDS-PAGE; murine serum spiked with IFN-γ, incubated with shed ARTC2.2 and 32P-NAD+; gel run under non-reducing conditions, autoradiography

phosphorylation of STAT1 in primary peritoneal macrophages (flow cytometry, serial titrations); loss of potency against unmodified IFN-γ; restored by de-ADP-ribosylation with ARH1 [1]: 4 fold
B1: ADP-ribosylated IFN-γ (ligand)
chain: HGTVIESLESLNNYFNSSGIDVEEKSLFLDIWRNWQKDGDMKILQSQIISFYLRLFEVLKDNQAISNNISVIESHLITTFFSNSKAKKDAFMSIAKFEVNNPQVQRQAFNELIRVVHQLLPESSLRKRKRSRC
modifications: ADP-ribosyl-arginine at R128

B2: recombinant murine IFN-γ (ligand, UniProt P01580 23-155, looked up)
chain: B1 chain
notes: interferon gamma, murine, recombinant; also called interferon-gamma; native IFN-γ homodimer; source: bought: Immunotools
binding result [2]: binds
